Measurements: article PMC5611513 (Frontiers in Cellular and Infection Microbiology, 2017)

Target: T1, TplEi (Pseudomonas aeruginosa, UniProt Q9I3K3)
T1 sequence: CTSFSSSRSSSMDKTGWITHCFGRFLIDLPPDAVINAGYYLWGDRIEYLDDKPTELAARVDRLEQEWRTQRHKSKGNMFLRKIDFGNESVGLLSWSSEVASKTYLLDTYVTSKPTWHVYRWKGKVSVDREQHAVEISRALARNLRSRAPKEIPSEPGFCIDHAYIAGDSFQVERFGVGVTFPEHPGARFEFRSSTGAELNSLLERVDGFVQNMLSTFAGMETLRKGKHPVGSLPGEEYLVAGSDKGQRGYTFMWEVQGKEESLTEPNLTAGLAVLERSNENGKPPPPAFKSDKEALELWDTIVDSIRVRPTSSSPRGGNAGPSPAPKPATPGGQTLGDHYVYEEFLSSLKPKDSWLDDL
Test: ITC
Settings: both partners purified

Binder | Kd [nM]
Ac-DDLFASIGALWTWAWRGPKARQELLKAEQ-NH2 (source: synthetic peptide (solid-phase FMOC, Scilight Biotechnology LLC, HPLC purified)) [B peptides (“L” peptide, TplE 82-108 plus EQ)] | 478
Ac-DDLFASIGALWTWAWRGPKARQELLKAEQVEVDD-NH2 (source: synthetic peptide (solid-phase FMOC, Scilight Biotechnology LLC, HPLC purified)) [A peptides (“L” peptide, TplE 82-108 plus EQVEVDD)] | ~125
